# Assay results as given in paper PMC10017365, “Functional characterization of Vip3Aa from Bacillus thuringiensis reveals the contributions of specific domains to its insecticidal activity” (The Journal of Biological Chemistry, 2023).
# Columns and labels:
# [1] = biological target: Vip3Aa (full-length Vip3Aa protoxin, from Bacillus thuringiensis 9816C) (Bacillus thuringiensis 9816C); test: SEC + other: dynamic light scattering; purified proteins on a Superdex 200 Increase 10/300 GL column; DLS of the same proteins (Fig. S2A)
# [2] = biological target: trypsin-activated Vip3Aa DI-DIII (DI-DIII^act) (Bacillus thuringiensis 9816C); test: SEC; trypsin-treated proteins (1:50 wt:wt, 4 °C, 6 h) on Superdex 200 Increase 10/300 GL, peak fractions analysed by SDS-PAGE; untreated DI-DIV and DI-DIII as controls
# [3] = biological target: Vip3Aa DI-DIII (domain I to domain III truncation variant, untreated) (Bacillus thuringiensis 9816C); test: as above
substance,measurement,setting,value
"Vip3Aa (full-length Vip3Aa protoxin, from Bacillus thuringiensis 9816C) (natural protein)",stoichiometry N,[1],4
trypsin-activated Vip3Aa DI-DIII (DI-DIII^act) (complex),stoichiometry N,[2],4
"Vip3Aa DI-DIII (domain I to domain III truncation variant, untreated) (domain or fragment)",stoichiometry N,[3],4
